Residue numbers refer to the chain shown, from its start. Names may count otherwise. No end group written: not given here. TMR = tetramethyl rhodamine dye
T1: Rb^P T638S (human, UniProt P06400 380-788, T638S)
T1 construct: also called variant 45
T1 sequence (looked up): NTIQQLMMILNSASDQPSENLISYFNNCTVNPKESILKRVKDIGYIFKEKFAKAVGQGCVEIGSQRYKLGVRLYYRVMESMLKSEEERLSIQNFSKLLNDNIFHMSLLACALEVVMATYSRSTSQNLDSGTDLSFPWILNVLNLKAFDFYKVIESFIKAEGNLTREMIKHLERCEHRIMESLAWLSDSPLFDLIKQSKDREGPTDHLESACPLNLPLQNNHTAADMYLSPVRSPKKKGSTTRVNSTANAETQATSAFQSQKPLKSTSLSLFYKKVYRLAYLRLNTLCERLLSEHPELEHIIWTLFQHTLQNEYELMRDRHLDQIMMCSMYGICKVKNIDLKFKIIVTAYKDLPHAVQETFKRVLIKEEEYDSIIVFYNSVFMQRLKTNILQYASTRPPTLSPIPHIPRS

T2: Rb^P H673P (human, UniProt P06400 380-788, H673P)
T2 construct: also called variant 54
T2 sequence (looked up): T1 sequence (looked up) with S259T, H294P

T3: Rb^P H686Y (human, UniProt P06400 380-788, H686Y)
T3 construct: also called variant 58
T3 sequence (looked up): T1 sequence (looked up) with S259T, H307Y

T4: Rb^P I679F (human, UniProt P06400 380-788, I679F)
T4 construct: also called variant 57
T4 sequence (looked up): T1 sequence (looked up) with S259T, I300F

T5: Rb^P H585Y (human, UniProt P06400 380-788, H585Y)
T5 construct: also called variant 33
T5 sequence (looked up): T1 sequence (looked up) with H206Y, S259T

B1: TMR-E2F1^TD, peptide of the E2F1 transactivation domain (peptide)
peptide: {TMR}-GEGIRDLFDCDFGDLTPLD
notes: also called E2F^TD; source: synthetic peptide, bought: GenScript
B2: TMR-E7^LxCxE, LxCxE peptide of the E7 oncoprotein from HPV (peptide)
peptide: DLYCYEQLN
modifications: also: TMR label, position not given here
notes: source: synthetic peptide, bought: GenScript

Experiments:
Experiment in all cases: fluorescence polarisation; 25 °C; unlabeled Rb^P titrated against 1.5 nM TMR-E2F1^TD or 7.5 nM TMR-E7^LxCxE; 25 mM Tris pH 8.0, 200 mM NaCl, 1 mM DTT, 0.1% Tween-20; 2 min incubation; quadratic fit; apparent Kd for the variants, Kd for WT
Details in all cases: both partners purified
Rb^P T638S = target: T1, Rb^P T638S
Rb^P H673P = target: T2, Rb^P H673P
Rb^P H686Y = target: T3, Rb^P H686Y
Rb^P I679F = target: T4, Rb^P I679F
Rb^P H585Y = target: T5, Rb^P H585Y

Binder | Kd (Rb^P T638S) [nM] | Kd (Rb^P H673P) [nM] | Kd (Rb^P H686Y) [nM] | Kd (Rb^P I679F) [nM] | Kd (Rb^P H585Y) [nM]
B1 | 14 | 42 | 20 | 17 | 35
B2 | 7 | 24 | 5 | 11 | 6

From article PMC11931385, “Structural and functional analysis of cancer-associated missense variants in the retinoblastoma protein pocket domain” (The Journal of Biological Chemistry, 2025)
